Results taken from IntAct's records for PubMed 22960633.

Legend:
arl3_mouse Arl3 = arl3_mouse Arl3 (UniProt Q9WUL7)
gnat1_human GNAT1 = gnat1_human GNAT1 (UniProt P11488)
gnat1_human GNAT1, sequence (P11488 whole entry): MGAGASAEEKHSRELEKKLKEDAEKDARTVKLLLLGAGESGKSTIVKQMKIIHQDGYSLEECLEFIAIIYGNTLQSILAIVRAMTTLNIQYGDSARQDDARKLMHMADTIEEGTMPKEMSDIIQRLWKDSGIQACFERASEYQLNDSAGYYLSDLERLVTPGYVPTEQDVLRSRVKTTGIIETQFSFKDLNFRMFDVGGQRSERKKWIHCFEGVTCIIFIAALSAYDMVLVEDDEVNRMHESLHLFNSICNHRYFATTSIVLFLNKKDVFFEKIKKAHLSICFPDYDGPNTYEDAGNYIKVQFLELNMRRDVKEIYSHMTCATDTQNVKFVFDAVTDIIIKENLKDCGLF

arl3_mouse Arl3, sequence (Q9WUL7 whole entry): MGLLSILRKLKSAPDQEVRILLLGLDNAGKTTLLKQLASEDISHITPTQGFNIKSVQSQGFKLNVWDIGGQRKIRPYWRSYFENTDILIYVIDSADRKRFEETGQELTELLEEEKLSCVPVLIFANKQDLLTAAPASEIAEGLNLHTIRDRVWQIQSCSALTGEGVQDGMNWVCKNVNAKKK

effect of a mutation on the interaction (arl3_mouse Arl3): decreasing interaction | effect of a mutation on the interaction (gnat1_human GNAT1): decreasing interaction
Substance: Protein unc-119 homolog A (Homo sapiens) (from UniProt Q13432) Y194A
